Test results: patent US9433687B2, “Anti-Notch3 antibodies and antibody-drug conjugates” (Pfizer Inc., priority 2012, dated 2016)

Columns and labels:
OVCAR3 = target: T1, OVCAR3 (Homo sapiens, UniProt Q9UM47); test: Flow cytometry (FACS) binding, OVCAR3; conditions: 4 μg/mL antibody
T1 construct: Notch3 endogenously expressing cells MDA-MB-468, HCC2429 and OVCAR3; endogenous in cells; host or cells: OVCAR3
Description: (§1) Unconjugated anti-Notch3 antibodies, hu28 and hu75, were examined for cell surface binding activity to Notch3 expressing cell lines by flow cytometry. Fluorescence activated cell sorting (FACS) analysis was conducted according to standard procedures. Cells were rinsed in HBSS with calcium chloride and magnesium chloride (herein termed HBSS++), harvested using trypsin without EDTA and neutralized with medium containing FBS. Cells were incubated on ice for 30 minutes with 4 μg/mL anti-Notch3 antibodies, hu28 and hu75, in HBSS++containing 3% HICS (heat-inactivated calf serum). Cells were washed three times with cold HBSS++, 3% HICS buffer. Cells were incubated in allophycocyanin-conjugated AffiniPure F(ab′)2 fragment goat anti-human IgG, Fc fragment secondary antibody (Jackson ImmunoResearch Laboratories, Inc., West Grove, Pa.) at 10 μg/mL for 30 minutes on ice in the dark. Cells were washed once with cold HBSS++/3% HICS buffer. Cells were resuspended in HBSS-++/3% HICS, 25 mM HEPES, 1 mM MgCl2 and 25 μg/ml DNaseI. 7-AAD (7-Amino-Actinomycin D) was added for exclusion of nonviable cells. Live cells were analyzed on a BD FACSCalibur flow cytometer (BD Biosciences, San Jose, Calif.). Mean fluorescence intensity (MFI) from channel FL-4 was calculated with FlowJo flow cytometry analysis software (Ashland, Oreg.).

MDA-MB-468/hNotch3 = target: T2, MDA-MB-468/hNotch3 (Homo sapiens, UniProt Q9UM47); test: Flow cytometry (FACS) binding, MDA-MB-468/hNotch3; conditions: 4 μg/mL antibody
T2 construct: cell lines engineered to over-express full length human Notch3 protein: MDA-MB-468/hNotch3 and U2OS/hNotch3; expressed in transfected cells; host or cells: MDA-MB-468
T2 sequence (Q9UM47 40-2321): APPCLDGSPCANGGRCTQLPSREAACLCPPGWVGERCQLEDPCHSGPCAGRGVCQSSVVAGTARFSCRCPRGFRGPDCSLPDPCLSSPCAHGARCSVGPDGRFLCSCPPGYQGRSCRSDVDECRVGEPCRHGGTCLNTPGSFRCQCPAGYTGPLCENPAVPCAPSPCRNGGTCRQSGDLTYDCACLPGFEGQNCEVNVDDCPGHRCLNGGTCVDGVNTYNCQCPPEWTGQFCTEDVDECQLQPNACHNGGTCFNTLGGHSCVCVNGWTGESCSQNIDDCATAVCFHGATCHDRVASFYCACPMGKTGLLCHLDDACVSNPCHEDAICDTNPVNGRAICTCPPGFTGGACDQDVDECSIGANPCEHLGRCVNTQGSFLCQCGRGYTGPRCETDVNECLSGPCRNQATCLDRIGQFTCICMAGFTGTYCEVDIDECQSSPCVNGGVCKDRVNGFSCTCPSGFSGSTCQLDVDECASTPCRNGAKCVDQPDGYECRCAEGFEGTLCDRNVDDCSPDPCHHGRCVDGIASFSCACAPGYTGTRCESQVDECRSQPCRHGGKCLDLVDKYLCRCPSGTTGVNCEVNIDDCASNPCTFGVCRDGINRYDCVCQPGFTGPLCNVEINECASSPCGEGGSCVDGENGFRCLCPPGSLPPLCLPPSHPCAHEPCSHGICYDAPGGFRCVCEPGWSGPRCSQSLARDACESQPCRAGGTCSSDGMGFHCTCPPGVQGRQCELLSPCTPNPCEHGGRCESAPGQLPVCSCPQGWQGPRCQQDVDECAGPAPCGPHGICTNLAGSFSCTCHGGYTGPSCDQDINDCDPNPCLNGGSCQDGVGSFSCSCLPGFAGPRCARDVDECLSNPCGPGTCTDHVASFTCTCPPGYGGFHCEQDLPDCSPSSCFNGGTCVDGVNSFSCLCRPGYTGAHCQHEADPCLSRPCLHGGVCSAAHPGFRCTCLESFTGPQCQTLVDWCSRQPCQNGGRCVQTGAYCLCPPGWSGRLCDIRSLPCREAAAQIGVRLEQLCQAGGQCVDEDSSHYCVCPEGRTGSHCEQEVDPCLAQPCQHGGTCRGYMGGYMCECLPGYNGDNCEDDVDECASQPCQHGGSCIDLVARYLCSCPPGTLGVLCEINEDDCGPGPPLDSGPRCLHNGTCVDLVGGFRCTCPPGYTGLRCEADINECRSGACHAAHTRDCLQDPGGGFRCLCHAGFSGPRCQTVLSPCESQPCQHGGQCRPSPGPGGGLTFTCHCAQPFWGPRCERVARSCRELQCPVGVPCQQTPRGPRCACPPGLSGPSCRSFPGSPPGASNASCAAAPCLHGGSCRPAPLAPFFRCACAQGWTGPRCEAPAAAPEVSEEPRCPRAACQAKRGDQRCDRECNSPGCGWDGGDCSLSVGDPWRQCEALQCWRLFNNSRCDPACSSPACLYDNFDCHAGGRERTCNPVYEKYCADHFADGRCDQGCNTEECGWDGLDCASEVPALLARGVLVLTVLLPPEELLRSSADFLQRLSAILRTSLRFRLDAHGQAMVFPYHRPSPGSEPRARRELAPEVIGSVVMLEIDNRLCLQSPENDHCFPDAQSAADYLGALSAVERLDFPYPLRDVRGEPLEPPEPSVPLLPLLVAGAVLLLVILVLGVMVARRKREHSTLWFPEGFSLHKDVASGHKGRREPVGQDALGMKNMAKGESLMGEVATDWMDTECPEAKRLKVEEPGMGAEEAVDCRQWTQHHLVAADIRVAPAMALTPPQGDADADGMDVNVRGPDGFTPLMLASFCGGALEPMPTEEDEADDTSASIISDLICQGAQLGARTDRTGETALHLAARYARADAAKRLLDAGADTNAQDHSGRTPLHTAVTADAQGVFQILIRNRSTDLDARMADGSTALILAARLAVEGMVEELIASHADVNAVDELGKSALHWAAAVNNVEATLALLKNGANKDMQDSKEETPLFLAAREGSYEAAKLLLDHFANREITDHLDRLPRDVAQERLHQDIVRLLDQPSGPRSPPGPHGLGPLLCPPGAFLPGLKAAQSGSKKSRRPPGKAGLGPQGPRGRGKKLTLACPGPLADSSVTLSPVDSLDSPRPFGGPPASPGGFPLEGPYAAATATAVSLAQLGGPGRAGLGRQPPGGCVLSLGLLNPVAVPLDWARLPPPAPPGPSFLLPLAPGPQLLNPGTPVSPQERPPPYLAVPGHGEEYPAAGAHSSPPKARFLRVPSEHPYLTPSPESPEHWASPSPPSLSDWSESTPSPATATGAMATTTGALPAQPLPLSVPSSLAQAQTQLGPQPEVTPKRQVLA
Description: as §1

[1] = test system: Notch3 signaling in human Notch3 reporter cells co-cultured with DLL4-HEK293 cells; test: Notch3 reporter gene co-culture assay; format: cell-based; conditions: average of two or three independent experiments; read-out: IC50 (nM) inhibition of Notch3-dependent signaling
Description: The ability of anti-Notch3 chimeric antibodies, ch28-hulgG1 and ch75-hulgG1, and humanized antibodies, hu28 and hu75, to inhibit Notch3 signaling were tested in a Notch3-dependent reporter gene co-culture assay. Anti-Notch3 antibodies were pre-incubated with Notch3 reporter cells and then co-cultured with DLL4-HEK293 cells to activate Notch3 signaling or with parental HEK293 cells as a control.
To generate the Notch3 reporter cell line, a series of three sequential, stable transfections were performed in the U-2 OS human osteosarcoma cell line (ATCC, Manassas, Va.). […]
To generate the ligand-expressing cells, HEK293 cells (ATCC) were transfected with a vector for expression of human DLL4. […] Following transfection, HEK293 cells were selected in 0.5 mg/ml G418, and clonal lines were isolated, expanded and analyzed for DLL4 expression. […]
The luminescent readings from Firefly-luciferase were divided by the internal control Renilla-luciferase reading to normalize the signals (termed hereinafter “F/R ratio”). […]
Human Notch3 reporter cells were trypinized and harvested from culture plate in assay medium which consisted 50% complete McCoy's 5A media (McCoy's 5A with 10% FBS and penicillin, streptomycin, Invitrogen) and 50% of complete MEM media (MEM with 10% FBS and penicillin, streptomycin, Invitrogen) and counted. […]

[2] = target: T3, mouse Notch3 expressed on the cell surface of U2OS/mNotch3 cells (Mus musculus, UniProt Q61982); test: Cell-based ELISA, U2OS/mNotch3 cells; conditions: Table 3; N/B = non-binding
T3 construct: U-2 OS cells stably over-expressing human or mouse full length Notch3 protein on cell surface; expressed in transfected cells; host or cells: U-2 OS (human osteosarcoma)
T3 sequence (Q61982 40-2318): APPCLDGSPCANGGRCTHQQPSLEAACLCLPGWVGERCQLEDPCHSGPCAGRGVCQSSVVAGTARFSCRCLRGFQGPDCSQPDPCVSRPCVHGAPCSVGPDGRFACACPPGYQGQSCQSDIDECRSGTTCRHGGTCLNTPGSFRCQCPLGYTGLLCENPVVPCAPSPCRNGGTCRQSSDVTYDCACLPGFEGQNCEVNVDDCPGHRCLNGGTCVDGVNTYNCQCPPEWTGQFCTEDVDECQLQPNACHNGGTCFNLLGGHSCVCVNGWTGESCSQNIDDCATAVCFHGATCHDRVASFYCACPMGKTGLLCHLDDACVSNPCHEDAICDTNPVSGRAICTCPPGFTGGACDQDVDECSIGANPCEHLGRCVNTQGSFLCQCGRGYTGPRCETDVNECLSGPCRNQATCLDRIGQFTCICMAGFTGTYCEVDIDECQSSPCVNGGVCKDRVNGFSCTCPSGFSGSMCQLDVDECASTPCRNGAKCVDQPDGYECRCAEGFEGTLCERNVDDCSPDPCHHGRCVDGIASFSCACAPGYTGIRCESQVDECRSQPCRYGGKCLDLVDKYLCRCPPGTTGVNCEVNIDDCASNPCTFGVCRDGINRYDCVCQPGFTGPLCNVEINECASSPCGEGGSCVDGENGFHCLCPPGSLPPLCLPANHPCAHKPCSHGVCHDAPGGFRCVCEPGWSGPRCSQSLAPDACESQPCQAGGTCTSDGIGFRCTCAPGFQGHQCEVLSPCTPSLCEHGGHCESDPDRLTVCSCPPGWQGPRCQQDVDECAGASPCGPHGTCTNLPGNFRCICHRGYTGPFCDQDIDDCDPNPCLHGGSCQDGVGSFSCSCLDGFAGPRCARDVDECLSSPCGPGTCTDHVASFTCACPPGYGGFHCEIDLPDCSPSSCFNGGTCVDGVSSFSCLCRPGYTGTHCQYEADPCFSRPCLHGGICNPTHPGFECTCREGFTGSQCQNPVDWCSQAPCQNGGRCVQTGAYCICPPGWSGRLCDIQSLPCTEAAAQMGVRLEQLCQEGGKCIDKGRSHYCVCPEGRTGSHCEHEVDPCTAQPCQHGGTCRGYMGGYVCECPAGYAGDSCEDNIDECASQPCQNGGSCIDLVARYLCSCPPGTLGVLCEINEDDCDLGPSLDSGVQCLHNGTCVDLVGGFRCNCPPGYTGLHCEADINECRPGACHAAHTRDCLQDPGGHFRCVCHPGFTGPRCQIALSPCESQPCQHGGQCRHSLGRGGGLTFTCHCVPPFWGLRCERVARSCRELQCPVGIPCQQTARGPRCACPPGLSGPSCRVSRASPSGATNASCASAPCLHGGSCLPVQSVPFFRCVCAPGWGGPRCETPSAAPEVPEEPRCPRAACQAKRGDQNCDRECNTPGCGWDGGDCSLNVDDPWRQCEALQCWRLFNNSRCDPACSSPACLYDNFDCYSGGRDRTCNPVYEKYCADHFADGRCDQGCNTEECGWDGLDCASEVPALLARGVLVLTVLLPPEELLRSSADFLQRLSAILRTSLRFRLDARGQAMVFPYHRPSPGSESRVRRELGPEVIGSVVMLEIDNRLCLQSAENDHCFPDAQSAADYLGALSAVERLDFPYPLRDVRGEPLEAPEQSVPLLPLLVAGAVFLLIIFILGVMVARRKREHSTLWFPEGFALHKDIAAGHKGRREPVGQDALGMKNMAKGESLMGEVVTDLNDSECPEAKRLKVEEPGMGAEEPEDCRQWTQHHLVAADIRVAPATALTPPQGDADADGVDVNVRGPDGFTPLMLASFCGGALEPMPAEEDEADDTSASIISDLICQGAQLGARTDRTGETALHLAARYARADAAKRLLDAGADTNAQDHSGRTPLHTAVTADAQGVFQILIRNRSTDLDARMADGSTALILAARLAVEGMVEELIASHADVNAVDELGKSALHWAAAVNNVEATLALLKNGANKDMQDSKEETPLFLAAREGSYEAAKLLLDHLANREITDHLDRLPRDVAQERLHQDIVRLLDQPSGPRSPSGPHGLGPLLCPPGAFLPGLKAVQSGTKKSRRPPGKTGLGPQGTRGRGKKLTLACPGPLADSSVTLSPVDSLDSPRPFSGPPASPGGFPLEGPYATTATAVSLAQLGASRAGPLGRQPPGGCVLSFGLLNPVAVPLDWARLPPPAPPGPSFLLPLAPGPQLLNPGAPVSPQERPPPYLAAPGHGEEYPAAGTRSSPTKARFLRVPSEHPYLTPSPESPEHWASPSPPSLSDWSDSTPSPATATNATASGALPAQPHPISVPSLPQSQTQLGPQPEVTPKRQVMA
Description: Humanized hu28 and hu75, and rat-human chimeric, ch28 and ch75, anti-Notch3 antibodies were screened for cell surface Notch3 binding in a cell-based ELISA. U-2 OS cells stably over-expressing human or mouse full length Notch3 protein on cell surface (hereinafter U2OS/hNotch3 and U2OS/mNotch3, respectively) were plated at 50,000 cells/well in 96 well plates (white opaque, BD/VWR) the day before ELISA assay. On the day of the ELISA, culture media was removed from wells and serially diluted (1:3 in blocking buffer) antibody solutions were applied to the plate. Plates were incubated at room temperature for 2 hours before being washed with PBS-Mg/Ca. HRP-conjugated secondary antibody was then applied and incubated with cells for 1 hour as described above for recombinant protein ELISA. […] Data plotting and analyses were performed with Microsoft Excel and Graphpad-Prism software.

T1 sequence (Q9UM47 40-2321): as the sequence (Q9UM47 40-2321) above

| Molecule | MFI (OVCAR3) | MFI (MDA-MB-468/hNotch3) | IC50 [1] [nM] | EC50 (nM) cell surface Notch3 binding ELISA, Full-length Mouse Notch3 [2] |
| --- | --- | --- | --- | --- |
| hu28 VH1.0/VL1.0: humanized r28 variant VH1.0/VL1.0, anti-Notch3 antibody (VH SEQ ID NO: 13, VL SEQ ID NO: 25) (antibody, V domains shown) VH: EVQLVESGGGLVQPGGSLRLSCAASGFTFRDYGMTWVRQAPGKGLEWVAYISSGSNYIYYAEAVKGRFTISRDNAKNSLYLQMNSLRAEDTAVYYCARRGPFVLDAWGQGTLVTVSS VL: DIQMTQSPSSLSASVGDRVTITCKASQSINRYLHWYQQKPGKAPKLLIYNANGLQTGVPSRFSGSGSGTDFTLTISSLQPEDFATYYCLQHNTWPDTFGGGTKVEIK | 116 | 1192 | – | – |
| ch75: rat-human chimeric anti-Notch3 antibody 75, rat variable regions fused with human IgG1 and human kappa (antibody, V domains shown) VH: QVKLLQSGAALVKPGASVKMSCKASGYAFTDYWVTWVKQSHGKSLEWIGEISPNSGGTNFNEKFKGKATLTVDKSTSTAYMELSRLTSEDSAIYYCTRGEIRYNWFAYWGQGTLVTVSS VL: NIVMTQSPKSMSISVGDRVTMNCKASQNVGNNIAWYQQKPGQSPKLLIYYASNRYTGVPDRFTGGGYGTDFTLTINSMQAEDAAFYYCQRLYNSPFTFGSGTKLEIK | – | – | 2.1 | N/B |
